Like-named read-outs stand apart in the source and are kept apart here.
B1: CODV-Fab hz20G6xhz7G3 antibody-like binding protein (bispecific antibody)
light: DIVMTQSPDSLAVSLGERATINCESSQSLLNSGNQKNYLTWYQQKPGQPPKPLIYWASTRESGVPDRFSGSGSGTDFTLTISSLQAEDVAVYYCQNDYSYPYTFGQGTKLEIKGGSGSSGSGGDIVMTQTPLSLSVTPGQPASISCKSSQSLVHNNANTYLSWYLQKPGQSPQSLIYKVSNRFSGVPDRFSGSGSGTDFTLKISRVEAEDVGVYYCGQGTQYPFTFGSGTKVEIKGGSGSSGSGGRTVAAPSVFIFPPSDEQLKSGTASVVCLLNNFYPREAKVQWKVDNALQSGNSQESVTEQDSKDSTYSLSSTLTLSKADYEKHKVYACEVTHQGLSSPVTKSFNRGEC
heavy: QVQLVESGGGVVQPGRSLRLSCAASGFTFTKAWMHWVRQAPGKQLEWVAQIKDKSNSYATYYADSVKGRFTISRDDSKNTLYLQMNSLRAEDTAVYYCRGVYYALSPFDYWGQGTLVTVSSEVQLVQSGAEVKKPGESLKISCKGSGYSFTDYYMKWARQMPGKGLEWMGDIIPSSGATFYNQKFKGQVTISADKSISTTYLQWSSLKASDTAMYYCARSHLLRASWFAYWGQGTMVTVSSASTKGPSVFPLAPSSKSTSGGTAALGCLVKDYFPEPVTVSWNSGALTSGVHTFPAVLQSSGLYSLSSVVTVPSSSLGTQTYICNVNHKPSNTKVDKKVEPKSCDKTHTHHHHHH
notes: also called hz20G6xhz7G3 CODV-Fab
B2: CODV-Fab-OL1 hz20G6xhz7G3 antibody-like binding protein (bispecific antibody, human IgG1, kappa, L234A L235A)
light: B1 light
heavy: not shown
chain: GSDKTHTCPPCPAPEAAGGPSVFLFPPKPKDTLMISRTPEVTCVVVDVSHEDPEVKFNWYVDGVEVHNAKTKPREEQYNSTYRVVSVLTVLHQDWLNGKEYKCKVSNKALPAPIEKTISKAKGQPREPQVCTLPPSRDELTKNQVSLSCAVKGFYPSDIAVEWESNGQPENNYKTTPPVLDSDGSFFLVSKLTVDKSRWQQGNVFSCSVMHEALHNHYTQKSLSLSPG
notes: formula I chain, formula III chain and Fc stump (Fc3); also called hz20G6xhz7G3 CODV-Fab-OL1; hz20G6xhz7G3 CODV-OL1
B3: CODV-Fab-TL1 hz20G6xhz7G3 antibody-like binding protein (bispecific antibody, human IgG1, kappa, L234A L235A)
light: DIVMTQSPDSLAVSLGERATINCESSQSLLNSGNQKNYLTWYQQKPGQPPKPLIYWASTRESGVPDRFSGSGSGTDFTLTISSLQAEDVAVYYCQNDYSYPYTFGQGTKLEIKGGSGSSGSGGDIVMTQTPLSLSVTPGQPASISCKSSQSLVHNNANTYLSWYLQKPGQSPQSLIYKVSNRFSGVPDRFSGSGSGTDFTLKISRVEAEDVGVYYCGQGTQYPFTFGSGTKVEIKGGSGSSGSGGRTVAAPSVFIFPPSDEQLKSGTASVVCLLNNFYPREAKVQWKVDNALQSGNSQESVTEQDSKDSTYSLSSTLTLSKADYEKHKVYACEVTHQGLSSPVTKSFNRGECDKTHTCPPCPAPEAAGGPSVFLFPPKPKDTLMISRTPEVTCVVVDVSHEDPEVKFNWYVDGVEVHNAKTKPREEQYNSTYRVVSVLTVLHQDWLNGKEYKCKVSNKALPAPIEKTISKAKGQPREPQVYTLPPSRDELTKNQVSLTCLVKGFYPSDIAVEWESNGQPENNYKTTPPVLDSDGSFFLYSKLTVDKSRWQQGNVFSCSVMHEALHNRFTQKSLSLSPG
heavy: not shown
notes: one chain of formula IV and one of formula III, IgG1 backbone; also called hz20G6xhz7G3 CODV-Fab-TL1
B4: CODV-Fab hz20G6x7G3 antibody-like binding protein (bispecific antibody)
light: DFVMTQSPSSLTVTAGEKVTMSCKSSQSLLNSGNQKNYLTWYLQKPGQPPKLLIYWASTRESGVPDRFTGSGSGTDFTLTISSVQAEDLAVYYCQNDYSYPYTFGGGTKLEIKGQPKAAPDIVMTQTPLSLSVTPGQPASISCKSSQSLVHNNGNTYLSWYLQKPGQSPQSLIYKVSNRFSGVPDRFSGSGSGTDFTLKISRVEAEDVGVYYCGQGTQYPFTFGSGTKVEIKTKGPSRTVAAPSVFIFPPSDEQLKSGTASVVCLLNNFYPREAKVQWKVDNALQSGNSQESVTEQDSKDSTYSLSSTLTLSKADYEKHKVYACEVTHQGLSSPVTKSFNRGEC
heavy: QVQLVESGGGVVQPGRSLRLSCAASGFTFTKAWMHWVRQAPGKQLEWVAQIKDKSNSYATYYADSVKGRFTISRDDSKNTLYLQMNSLRAEDTAVYYCRGVYYALSPFDYWGQGTLVTVSSSEVQLQQSGPELVKPGASVKMSCKASGYTFTDYYMKWVKQSHGKSLEWIGDIIPSNGATFYNQKFKGKATLTVDRSSSTAYMHLNSLTSEDSAVYYCTRSHLLRASWFAYWGQGTLVTVSARTASTKGPSVFPLAPSSKSTSGGTAALGCLVKDYFPEPVTVSWNSGALTSGVHTFPAVLQSSGLYSLSSVVTVPSSSLGTQTYICNVNHKPSNTKVDKKVEPKSCDKTHTHHHHHH
notes: also called hz20G6 × 7G3 CODV-Fab
B5: CODV-Fab 7G3x20G6 antibody-like binding protein (bispecific antibody)
light: DVVMTQTPVSLSVSLGGQVSISCRSSQSLVHNNGNTYLSWYLQKPGQSPQSLIYKVSNRFSGFSDRFSGSGSGTDFTLKISRVDPDDLGVYYCGQGTQYPFTFGSGTKLEIKGQPKAAPDFVMTQSPSSLTVTAGEKVTMSCKSSQSLLNSGNQKNYLTWYLQKPGQPPKLLIYWASTRESGVPDRFTGSGSGTDFTLTISSVQAEDLAVYYCQNDYSYPYTFGGGTKLEIKTKGPSRTVAAPSVFIFPPSDEQLKSGTASVVCLLNNFYPREAKVQWKVDNALQSGNSQESVTEQDSKDSTYSLSSTLTLSKADYEKHKVYACEVTHQGLSSPVTKSFNRGEC
heavy: EVQLQQSGPELVKPGASVKMSCKASGYTFTDYYMKWVKQSHGKSLEWIGDIIPSNGATFYNQKFKGKATLTVDRSSSTAYMHLNSLTSEDSAVYYCTRSHLLRASWFAYWGQGTLVTVSASEVQLVETGGSLVQPGKSLKLTCATSGFTFTKAWMHWVRQSPEKQLEWVAQIKDKSNSYATYYAESVKGRFTISRDDSKSTIYLQMNSLKEEDTAIYYCRGVYYALSPFDYWGQGVMVTVSSRTASTKGPSVFPLAPSSKSTSGGTAALGCLVKDYFPEPVTVSWNSGALTSGVHTFPAVLQSSGLYSLSSVVTVPSSSLGTQTYICNVNHKPSNTKVDKKVEPKSCDKTHTHHHHHH
notes: formula I and formula II chains; hinge and His-tag added C-terminally to formula II; also called 7G3 × 20G6
B6: CODV-Fab 7G3xhz4B4 antibody-like binding protein (bispecific antibody)
light: DVVMTQTPVSLSVSVGGRVSISCRSSQSLVHDNGNTYLSWSLQKPGKSPKVLIYKVSNRFSGVSSRFTGSGSGTDFTLKISSVQPDDLGVYYCGQGTQYPFTFGSGTKLEIKGQPKAAPDFVMTQSPSSLTVTAGEKVTMSCKSSQSLLNSGNQKNYLTWYLQKPGQPPKLLIYWASTRESGVPDRFTGSGSGTDFTLTISSVQAEDLAVYYCQNDYSYPYTFGGGTKLEIKTKGPSRTVAAPSVFIFPPSDEQLKSGTASVVCLLNNFYPREAKVQWKVDNALQSGNSQESVTEQDSKDSTYSLSSTLTLSKADYEKHKVYACEVTHQGLSSPVTKSFNRGEC
heavy: EVQLQQSGPELVKPGASVKMSCKASGYTFTDYYMKWVKQSHGKSLEWIGDIIPSNGATFYNQKFKGKATLTVDRSSSTAYMHLNSLTSEDSAVYYCTRSHLLRASWFAYWGQGTLVTVSASQVQLVETGGGLVKPGQSLKLTCATSGFTFSNAWMHWVRQSPEKGLEWVAQIKARSNNYATYYAESVKGRFTISRDDSKSTIYLQMNSLTPEDTAIYYCRGTYYASKPFDYWGQGVMVTVSSRTASTKGPSVFPLAPSSKSTSGGTAALGCLVKDYFPEPVTVSWNSGALTSGVHTFPAVLQSSGLYSLSSVVTVPSSSLGTQTYICNVNHKPSNTKVDKKVEPKSCDKTHTHHHHHH
notes: also called 7G3 × hz4B4 CODV-Fab

Tests used:
[1] = target: T1, human CD3ε/δ-Fc fusion protein (soluble recombinant CD3ε/δ complex) (human, UniProt P04234 22-105); assay: SPR Biacore
T1 construct: also called huCD3ε/δ; huCD3; not shown: hinge, CH2, CH3 of human IgG with tag

[2] = target: T2, human CD123 Strep-II tagged Fc-fusion protein (human); assay: SPR Biacore
T2 construct: also called human CD123-Fc; recombinant CD123

[3] = target: T3, human CD3 (TCR complex) on primary human T cells or Jurkat cells (human, UniProt P07766 23-207); assay: cell-based or functional assay
[4] = target: T4, human CD123 (IL3RA) on cells (human, UniProt P26951 19-378); assay: cell-based or functional assay
[5] = target: T3, human CD3 (TCR complex) on primary …; assay: cell-based or functional assay; remark: listed apart in the source
[6] = target: T1, human CD3ε/δ-Fc fusion protein (soluble …); assay: SPR Biacore; remark: listed apart in the source
[7] = target: T2, human CD123 Strep-II tagged Fc-fusion …; assay: SPR Biacore; remark: listed apart in the source
[8] = target: T4, human CD123 (IL3RA) on cells; assay: cell-based or functional assay; remark: listed apart in the source
[9] = target: T1, human CD3ε/δ-Fc fusion protein (soluble …); assay: SPR Biacore, CODV-Fab
Experimental: (§1) Binding affinities of anti-CD3 binding Fabs or CODV-Fabs were measured by surface plasmon resonance (SPR) using a Biacore3000 instrument (GE Healthcare). Assay buffer was HBS-EP (BR-1001-88, GE Healthcare). Capture of CD3ε/δ-Fc fusion proteins was achieved using the human antibody capture kit (GE Healthcare). […] The CD3εδ-Fc fusions proteins were captured at 10 μl/min to approx. 70 RU to yield Rmax values of 30 RU. Binding kinetics with the anti-CD3 Fabs or CODV-Fabs was measured at 30 μl/min for 240 sec. and 600 sec. for association and dissociation phase, respectively. Twofold dilutions of Fabs from 3 to 400 nM in assay buffer were used. All Fab concentrations were run in duplicate together with duplicate buffer blanks for double referencing. Regeneration of the capture surface was performed with a 1 min injection of 3M MgCl2 solution at 30 μl/min. For data analysis the BIAevaluation software v.4.1 (GE Healthcare) was used. Data were fit globally using a 1:1 Langmuir model with mass transfer.

[10] = target: T4, human CD123 (IL3RA) on cells; assay: cell-based or functional assay; remark: listed apart in the source
[11] = target: T1, human CD3ε/δ-Fc fusion protein (soluble …); assay: SPR Biacore, CODV-Fab on recombinant CD3ε/δ
Experimental: as §1

T4 sequence (P26951 19-378): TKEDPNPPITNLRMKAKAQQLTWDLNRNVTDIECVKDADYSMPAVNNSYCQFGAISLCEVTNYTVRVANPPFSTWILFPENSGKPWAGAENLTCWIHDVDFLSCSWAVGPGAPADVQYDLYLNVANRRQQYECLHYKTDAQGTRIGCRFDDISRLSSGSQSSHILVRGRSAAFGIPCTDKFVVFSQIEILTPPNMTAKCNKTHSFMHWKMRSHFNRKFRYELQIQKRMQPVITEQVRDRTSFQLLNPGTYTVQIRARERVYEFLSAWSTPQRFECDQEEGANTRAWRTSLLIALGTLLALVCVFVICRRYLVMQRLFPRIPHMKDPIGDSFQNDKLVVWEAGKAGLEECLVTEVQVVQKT
T1 sequence (chain, as listed by the source mutant, chain 1 of 2): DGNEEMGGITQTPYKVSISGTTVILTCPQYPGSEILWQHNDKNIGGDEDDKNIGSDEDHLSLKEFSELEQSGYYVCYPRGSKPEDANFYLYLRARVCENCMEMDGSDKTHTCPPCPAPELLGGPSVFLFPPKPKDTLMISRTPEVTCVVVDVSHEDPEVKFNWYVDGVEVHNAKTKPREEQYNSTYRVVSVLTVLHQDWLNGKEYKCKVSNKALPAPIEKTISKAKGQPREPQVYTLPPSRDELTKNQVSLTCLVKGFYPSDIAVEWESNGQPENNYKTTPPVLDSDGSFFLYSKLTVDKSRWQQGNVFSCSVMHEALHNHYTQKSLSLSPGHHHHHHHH
T1 sequence (P04234 22-105, stated change not applied, chain 2 of 2): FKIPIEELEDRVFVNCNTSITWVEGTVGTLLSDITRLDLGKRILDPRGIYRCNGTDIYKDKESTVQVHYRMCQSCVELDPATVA
T2 sequence (chain, as listed by the source limits assumed): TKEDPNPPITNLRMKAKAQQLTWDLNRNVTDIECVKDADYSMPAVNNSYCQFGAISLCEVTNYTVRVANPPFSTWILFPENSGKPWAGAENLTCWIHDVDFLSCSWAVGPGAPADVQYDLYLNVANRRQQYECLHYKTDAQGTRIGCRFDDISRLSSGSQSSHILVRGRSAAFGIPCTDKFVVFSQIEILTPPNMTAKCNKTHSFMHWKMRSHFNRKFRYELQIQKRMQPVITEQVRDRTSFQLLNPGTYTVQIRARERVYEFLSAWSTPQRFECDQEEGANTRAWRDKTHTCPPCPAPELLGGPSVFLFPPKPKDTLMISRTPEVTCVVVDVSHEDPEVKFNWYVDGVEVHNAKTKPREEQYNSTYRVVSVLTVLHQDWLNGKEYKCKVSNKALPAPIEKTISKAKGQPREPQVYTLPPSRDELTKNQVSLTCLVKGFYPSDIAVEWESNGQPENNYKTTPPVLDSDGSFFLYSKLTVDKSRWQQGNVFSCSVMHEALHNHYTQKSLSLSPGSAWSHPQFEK
T3 sequence (P07766 23-207, one chain of several): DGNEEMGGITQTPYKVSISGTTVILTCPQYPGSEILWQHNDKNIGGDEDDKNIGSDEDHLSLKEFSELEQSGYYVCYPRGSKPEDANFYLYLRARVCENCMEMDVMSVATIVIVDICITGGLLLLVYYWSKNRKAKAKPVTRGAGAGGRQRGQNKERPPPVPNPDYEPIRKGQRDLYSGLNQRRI

Row | Binder | Kd [1] [nM] | Kd [2] [nM] | T cell activation with THP-1 target cells, CD4+ T cells (% CD69+ cells) EC50 (pM) [3] [pM] | T cell activation with THP-1 target cells, CD8+ T cells (% CD69+ cells) EC50 (pM) [3] [pM] | Cytotoxic assay (THP cells) EC50 [pM] [4] [pM] | Jurkat-NFAT-Luc reporter, no target cells, activation at Cmax in relation to max. activation in assay with target cells (%) [5] [%] | Jurkat-NFAT-Luc reporter, with THP1 cells, EC50 (pM) [5] [pM] | Kd [6] [nM] | Kd [7] [nM] | Cytotoxic assay (THP cells) EC50 [pM] [8] [pM] | further results
1 | B1 | 9 | 0.2 | 1.4 | 3.1 | 2.1 | 0.2 | 561 |  |  |  | 
2 | B2 | 15 |  | 1 | 3.3 |  | 0.4 | 320 |  |  |  | 
3 | B3 | 11 | 0.2 | 3.2 | 9.9 | 1 | 0.4 | 444 |  |  |  | 
4 | B4 |  |  |  |  |  |  |  | 5 | 0.6 | 30.9 | 
5 | B5 |  |  |  |  |  |  |  |  |  |  | Kd [9]: 7 nM; koff [9]: 0.00051 s⁻¹; kon [9]: 72000 M⁻¹ s⁻¹; Activity EC50 [ng/ml], cytotoxic assay on THP-1 with human T cells [10]: 18 ng/mL; Kd [11]: 26.3 nM; koff [11]: 0.000571 s⁻¹; kon [11]: 21700 M⁻¹ s⁻¹
6 | B6 |  |  |  |  |  |  |  | 5.4 | 0.1 | 26.7 | 

— patent US20210292423A1 (published 2021)
